In PMC10786891, “Massively parallel profiling of RNA-targeting CRISPR-Cas13d”:
Numbering of substitutions follows the chain as printed. Names may count otherwise.

T1: EsCas13d, nuclease-dead (Eubacterium siraeum, UniProt B0MS50, R295A;H300A;R849A;H854A)
T1 sequence: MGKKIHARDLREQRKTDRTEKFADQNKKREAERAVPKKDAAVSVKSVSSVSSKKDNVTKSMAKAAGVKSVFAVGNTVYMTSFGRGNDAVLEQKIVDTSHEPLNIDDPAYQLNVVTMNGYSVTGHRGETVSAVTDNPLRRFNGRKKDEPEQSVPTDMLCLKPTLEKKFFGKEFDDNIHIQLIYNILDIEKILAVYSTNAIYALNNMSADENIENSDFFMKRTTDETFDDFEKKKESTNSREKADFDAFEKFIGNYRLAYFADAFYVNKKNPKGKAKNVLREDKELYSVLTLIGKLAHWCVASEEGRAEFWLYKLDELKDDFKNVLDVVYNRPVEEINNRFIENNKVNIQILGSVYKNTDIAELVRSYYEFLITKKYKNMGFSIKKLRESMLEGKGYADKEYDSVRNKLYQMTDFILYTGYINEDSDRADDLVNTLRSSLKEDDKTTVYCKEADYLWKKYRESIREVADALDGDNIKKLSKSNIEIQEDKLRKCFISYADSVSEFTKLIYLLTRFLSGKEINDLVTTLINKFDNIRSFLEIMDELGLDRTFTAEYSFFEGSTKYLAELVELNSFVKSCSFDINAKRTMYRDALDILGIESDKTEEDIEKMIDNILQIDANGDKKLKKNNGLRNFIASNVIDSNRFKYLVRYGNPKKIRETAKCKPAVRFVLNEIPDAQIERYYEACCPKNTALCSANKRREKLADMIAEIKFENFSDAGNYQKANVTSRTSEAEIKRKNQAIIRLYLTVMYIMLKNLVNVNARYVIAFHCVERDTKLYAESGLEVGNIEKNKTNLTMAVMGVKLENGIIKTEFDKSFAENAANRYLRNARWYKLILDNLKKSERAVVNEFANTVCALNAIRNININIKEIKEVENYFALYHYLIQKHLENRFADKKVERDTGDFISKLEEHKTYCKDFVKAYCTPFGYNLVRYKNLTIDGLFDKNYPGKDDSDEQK

B1: target 1 complement block 3-9 (mixed)
RNA 1: CACCCGUGCAAAAAUGCAGGGGUCUAAAACUGAGCGGAUAACCUCUCUAUGG
RNA 2: GGGAAUGGAUCCACAUCUACGAAUUCGUACCAUAGAGAGGUUUAGGCGACACCGAGAUCGGAAGAGCACACGU
B2: target 1 insC 3' of 16,insA 3' of 8 (mixed)
RNA 1: B1 RNA 1
RNA 2: GGGAAUGGAUCCACAUCUACGAAUUCGUACCAUAGACGAGGUUAUACCGCUCACCGAGAUCGGAAGAGCACACGU
B3: target 1 U10A,G15C (mixed)
RNA 1: B1 RNA 1
RNA 2: B1 RNA 2 with G37C, U42A, U43A, A44U, G45C, G46C, C47G, G48C, A49U
B4: target 1 insA 3' of 17,insA 3' of 4 (mixed)
RNA 1: B1 RNA 1
RNA 2: B2 RNA 2 with C37A, A46C, C48G, G49C, C50A
B5: target 1 MT 5'PFS AAG 3'PFS UUC (mixed)
RNA 1: B1 RNA 1
RNA 2: GGGAAUGGAUCCACAUCUACGAAUUCAAGCCAUAGAGAGGUUAUCCGCUCAUUCAGAUCGGAAGAGCACACGU
B6: target 1 MT 5'PFS GGG 3'PFS UUU (mixed)
RNA 1: B1 RNA 1
RNA 2: B5 RNA 2 with A27G, A28G, C54U
B7: target 1 MT 5'PFS AAG 3'PFS UUG (mixed)
RNA 1: B1 RNA 1
RNA 2: B5 RNA 2 with C54G
B8: target 1 MT 5'PFS UAG 3'PFS AAG (mixed)
RNA 1: B1 RNA 1
RNA 2: B5 RNA 2 with A27U, U52A, U53A, C54G
B9: target 1 MT 5'PFS UAG 3'PFS AAA (mixed)
RNA 1: B1 RNA 1
RNA 2: B5 RNA 2 with A27U, U52A, U53A, C54A
B10: target 1 MT 5'PFS UAG 3'PFS AAC (mixed)
RNA 1: B1 RNA 1
RNA 2: B5 RNA 2 with A27U, U52A, U53A
B11: target 1 MT 5'PFS GGG 3'PFS UUA (mixed)
RNA 1: B1 RNA 1
RNA 2: B5 RNA 2 with A27G, A28G, C54A
B12: target 1 MT 5'PFS GGG 3'PFS UUC (mixed)
RNA 1: B1 RNA 1
RNA 2: B5 RNA 2 with A27G, A28G
B13: target 1 MT 5'PFS GGG 3'PFS UUG (mixed)
RNA 1: B1 RNA 1
RNA 2: B5 RNA 2 with A27G, A28G, C54G
B14: target 1 MT 5'PFS UCG 3'PFS UUU (mixed)
RNA 1: B1 RNA 1
RNA 2: B5 RNA 2 with A27U, A28C, C54U
B15: target 1 A1C,C4A (mixed)
RNA 1: B1 RNA 1
RNA 2: B5 RNA 2 with A27G, A28U, G29A, C48A, A51C, U52C, U53C, C54G
B16: target 1 MT 5'PFS GGG 3'PFS CAA (mixed)
RNA 1: B1 RNA 1
RNA 2: B5 RNA 2 with A27G, A28G, U52C, U53A, C54A
B17: target 1 MT 5'PFS GGG 3'PFS CAC (mixed)
RNA 1: B1 RNA 1
RNA 2: B5 RNA 2 with A27G, A28G, U52C, U53A
B18: target 1 MT 5'PFS AGC 3'PFS AAA (mixed)
RNA 1: B1 RNA 1
RNA 2: B5 RNA 2 with A28G, G29C, U52A, U53A, C54A
B19: target 1 MT 5'PFS GGG 3'PFS CAG (mixed)
RNA 1: B1 RNA 1
RNA 2: B5 RNA 2 with A27G, A28G, U52C, U53A, C54G
B20: target 1 MT 5'PFS UCG 3'PFS CUA (mixed)
RNA 1: B1 RNA 1
RNA 2: B5 RNA 2 with A27U, A28C, U52C, C54A
B21: target 1 MT 5'PFS GCU 3'PFS AGA (mixed)
RNA 1: B1 RNA 1
RNA 2: B5 RNA 2 with A27G, A28C, G29U, U52A, U53G, C54A
B22: target 1 MT 5'PFS GCU 3'PFS AGC (mixed)
RNA 1: B1 RNA 1
RNA 2: B5 RNA 2 with A27G, A28C, G29U, U52A, U53G
B23: target 1 MT 5'PFS GGG 3'PFS CAU (mixed)
RNA 1: B1 RNA 1
RNA 2: B5 RNA 2 with A27G, A28G, U52C, U53A, C54U
B24: target 1 MT 5'PFS GCA 3'PFS UUU (mixed)
RNA 1: B1 RNA 1
RNA 2: B5 RNA 2 with A27G, A28C, G29A, C54U
B25: target 1 MT 5'PFS CCU 3'PFS AUA (mixed)
RNA 1: B1 RNA 1
RNA 2: B5 RNA 2 with A27C, A28C, G29U, U52A, C54A
B26: target 1 del1 (mixed)
RNA 1: B1 RNA 1
RNA 2: GGGAAUGGAUCCACAUCUACGAAUUCGUACCAUAGAGAGGUUAUCCGCUCCCGAGAUCGGAAGAGCACACGU
B27: target 1 MT 5'PFS CCU 3'PFS AUC (mixed)
RNA 1: B1 RNA 1
RNA 2: B5 RNA 2 with A27C, A28C, G29U, U52A
B28: target 1 MT 5'PFS GCA 3'PFS UUG (mixed)
RNA 1: B1 RNA 1
RNA 2: B5 RNA 2 with A27G, A28C, G29A, C54G
B29: target 1 MT 5'PFS GAA 3'PFS CUU (mixed)
RNA 1: B1 RNA 1
RNA 2: B5 RNA 2 with A27G, G29A, U52C, C54U
B30: target 1 MT 5'PFS GAA 3'PFS CUA (mixed)
RNA 1: B1 RNA 1
RNA 2: B5 RNA 2 with A27G, G29A, U52C, C54A
B31: target 1 MT 5'PFS GGG 3'PFS ACA (mixed)
RNA 1: B1 RNA 1
RNA 2: B5 RNA 2 with A27G, A28G, U52A, U53C, C54A
B32: target 1 MT 5'PFS CUU 3'PFS AAC (mixed)
RNA 1: B1 RNA 1
RNA 2: B5 RNA 2 with A27C, A28U, G29U, U52A, U53A
B33: target 1 MT 5'PFS GGG 3'PFS ACG (mixed)
RNA 1: B1 RNA 1
RNA 2: B5 RNA 2 with A27G, A28G, U52A, U53C, C54G
B34: target 1 MT 5'PFS GCU 3'PFS UAU (mixed)
RNA 1: B1 RNA 1
RNA 2: B5 RNA 2 with A27G, A28C, G29U, U53A, C54U
B35: target 1 MT 5'PFS CUU 3'PFS AAU (mixed)
RNA 1: B1 RNA 1
RNA 2: B5 RNA 2 with A27C, A28U, G29U, U52A, U53A, C54U
B36: target 1 MT 5'PFS UUG 3'PFS AAU (mixed)
RNA 1: B1 RNA 1
RNA 2: B5 RNA 2 with A27U, A28U, U52A, U53A, C54U
B37: target 1 del2 (mixed)
RNA 1: B1 RNA 1
RNA 2: B26 RNA 2 with C50A
B38: target 1 MT 5'PFS ACA 3'PFS AGG (mixed)
RNA 1: B1 RNA 1
RNA 2: B5 RNA 2 with A28C, G29A, U52A, U53G, C54G

Target: T1, EsCas13d, nuclease-dead
Test: crRNA (strand 1, pre-loaded); Mg2+; 40 mM Tris-HCl pH 7.5, 150 mM NaCl, 6 mM MgCl2, 1 mM DTT, 0.1% Tween-20, 0.2 mg/ml BSA; 25 C; 10 min per concentration, then washed
Conditions: tags: His6-TwinStrep-SUMO cleaved; N-terminal SNAP kept (SNAP-Surface 488); label: 3' end held by stalled T7 RNA polymerase

Compared with B1, B2 is 6.4-fold higher in Kd: 8.8 ± 0.4 nM for the first, 56 ± 12 nM for the second.

Compared with B3, B4 is 9.8-fold lower in Kd: 98 ± 17 nM for the first, 10 ± 0.7 nM for the second.

B5 and B6 are within error of each other in Kd: 16 ± 6 nM for the first, 14.7 ± 2.05 nM for the second.

First: B7
Second: B8
The Kd of the first is 3.4-fold lower: 13.5 ± 2 nM for the first, 45.5 ± 13 nM for the second. The first binds more tightly here.

B9 and B10 are the same in Kd: 34 ± 7 nM for the first, 34 ± 6 nM for the second.

B11 and B12 are within error of each other in Kd: 16.8 ± 2.55 nM for the first, 16.4 ± 1.95 nM for the second.

First: B13
Second: B14
The Kd of the first is 3.3-fold lower: 7.3 ± 0.45 nM for the first, 24 ± 5 nM for the second. The first binds more tightly here.

Compared with B15, B16 is 6.7-fold higher in Kd: 7.5 ± 1 nM for the first, 50.5 ± 21.5 nM for the second. The first binds more tightly here.

B17 and B18 are within 1.5-fold of each other in Kd: roughly 55.5 nM for the first, roughly 52 nM for the second.

B19 and B20 are within error of each other in Kd: 32 ± 5.5 nM for the first, 29 ± 7 nM for the second.

B21 and B22 are within error of each other in Kd: 56 ± 16.5 nM for the first, 36 ± 7 nM for the second.

Going from B23 to B24, the Kd falls from 32 ± 12 nM to 11 ± 2.4 nM (2.9-fold). The second binds more tightly here.

Compared with B25, B26 is 1.9-fold higher in Kd: 21 ± 5 nM for the first, 39 ± 9 nM for the second. The first binds more tightly here.

First: B27
Second: B28
The Kd of the first is 4.1-fold higher: 21 ± 8 nM for the first, 5.14 ± 0.38 nM for the second. The second binds more tightly here.

First: B29
Second: B30
The Kd of the first is 2.2-fold lower: 18.5 ± 7.5 nM for the first, roughly 40 nM for the second. The first binds more tightly here.

B31 and B32 are within error of each other in Kd: 28.5 ± 6.5 nM for the first, 41 ± 17.5 nM for the second.

Compared with B33, B34 is 4.2-fold higher in Kd: 17.5 ± 1.85 nM for the first, 73 ± 28 nM for the second. The first binds more tightly here.

First: B35
Second: B36
The Kd of the first is 2.6-fold higher: 58 ± 27 nM for the first, 22.5 ± 4.25 nM for the second. The second binds more tightly here.

B37 and B38 are within 1.5-fold of each other in Kd: 33 ± 4 nM for the first, roughly 46 nM for the second.
